Test: yeast display, Sf9 membrane polyspecificity reagent, FACS + sequencing; frameworks hold sequencing errors
In short: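 A nanobody's polyreactivity label depends on the gate it was sorted from. Yeast display cells were stained with 10% biotinylated, detergent-solubilized Sf9 membrane reagent for 1 hour at 4 °C, enriched on streptavidin microbeads and sorted by FACS. The low and high (top ~1%) gates were set on anti-HA fluorescence for expression and streptavidin fluorescence for reagent binding.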

Row | Sequence | polyreactivity (PSR sort gate)
1 | QEQLQESGGGLVQAGGSLRLSCAASGIIFDWFFMGWYRQAPGREREFVAAITYGATTNYADSVKGRFTISRDNGKNTVYLQMNSLKPEDTAVYYCAAVRGRGGTHAYWGQGTQVTVSG | low polyreactivity
2 | QEQLQESGGGQVQAGGSLLLSCAASGNIIRYYYMGWYRQAQGKVRELVAAITYGTSTNYADSVKGRFTISRDNAKNTVYLQMNSLKPEDTAVYYCAVDVNYGDPLDNWGEGTQVTVSS | high polyreactivity
3 | QEQLQESGSGLVQAGGSLRLSCAASGNIFHDWVMGWYRQAPGKERELVAAISPGAITYYADSVKGRFTISRDNAKNTVYLQTNSLKPEDTAVYYCAAYYIVEYLHGYWGQGTRVTVSS | low polyreactivity
4 | QEQLQESGSGLVQAGGSLRLSCAASGNIFQDWVMGWYRQAPGKERELVAAISHGAITYYADSVKGRFTISRDNAKYTVYLQTNSLKREDTAVYYCAAYYIVEYLHGYWGQGTRVTVSS | low polyreactivity
5 | QEQLQESGSGLVQAGGSLRLSCAASGNIFQDWVRGWYRQAPGKERELVAAISPGAITYDADSVKGRFTISRDNAKNTVYLQTNSLNPEDTAVYYCAAYYIVEYLQGYWGQGTRVTVSS | low polyreactivity
6 | QEQLQESGVGLVQAGGSLRLICEASGSISQAWYMGWYRQAPGKERELVAAINVGAITYYADSVKGRFSISRDNAKNTVYLPMNSLTPDDTAVYYCAVDQYSEAYYDYWGQGTQATVSS | high polyreactivity
7 | QEQLQGSGGGLAQAGDSLRLSCAASGTIFSEYNNGLVSPGAGQRTRTCCRYWCWGNTYYADSAKGRFTTIRDNAKNTVYLQKNSLKPEDTAVYYCAFNRPYPSRHIYRGQGTQVTVSS | high polyreactivity
8 | QEQLVESGGGFVQAGGSLRLSCAASGRIFTGYAMGWYRQAPGKERELVAVITWSTGSSTYYADSVKGRFTISRDNAKNTVYLQMNSLNPEDTAVYYFNAAYKIDFTYDTYDYWGQGTQVTVSS | low polyreactivity
9 | QEQLVESGGGLVQAGGSLGLSCAASGLTFSYYAMRWYRQAPGKERELVAAIDYSGGTTYADSVKGRFTISRDNAKNTVYLQMNSLKPEDTAVYYCAAAPDGWFASGDEYWGQGTQVTVSS | high polyreactivity
10 | QEQLVESGRGLVQAGGSLRVSCAASGSIFSVNGMGWYRQAPGKARELVAAIRRSGGSTYYADSVKGRFTISRDHAKNTVNLQRNSLKPEDTAVYYCAAPVRQSSYTRYDAWGQGTQVTVSS | high polyreactivity
11 | QFHLVDSGGGLVQAGCSLRLSCAASGFTFNSYAMGWYRQAPGKERELVASITRGGGSTYYADSVKGRFTISRDNAKNTVYLKMNSLKPEDTAVYYCTARVRRRGGSFNYWGQGTQVIVSS | high polyreactivity
12 | QFHLVESGGGLLQAGGSLRLSCAASGRIFYANDMGWYRQAPGKERELLAAISQSGGSTFYADSVKGRFTISRDNAKNTVYLQMNSLKPEDTAVYYCATDYYGPVYDLDYDYWGQGTQVSVSS | low polyreactivity
13 | QFHLVESGGRLVQAGGSLRLSCAASGRIFYYYVMGWYRQAPGKERELVAVIDWSGGSTYYADSVKGRFTISRDNAKNTVYVQMNSLKPEDTAVYYCAKVWLNFSLAYEDYDYWGQGTQVTVSS | low polyreactivity
14 | QFKLVESGGGLVQAGGSLRLICAASGITLNRNAMGRYRQAPGKEMELVARISRRGGTTYYADSVKGRFTISRDKAKNTVYLQMNSLKPEDTAVYYCNAGPYGGNPFDYWGQGTQVTVSS | high polyreactivity
15 | QFKLVESGGGLVQAGGSLRLSCAASGSIVERKTMGWYRQAPGKEMEFVAGITQSGGRTYYADSVKGRFTISRDNAKNTVYLQMNSLKPEDTAVYYCATKTPRAWSYGYWGQGTQVTVSS | high polyreactivity
16 | QFQHVESGAGLVHAGGCLRLSCSASGRTFFYNAMGWYRQPPGKEREFVASITWSGSTYYADSVKGRFTISRDNAKNTVYLLMNRLKQEDTAVYYCAADRQGGLVIDSGGYDYWGQGTQVTVSS | low polyreactivity
17 | QFQHVESGGGLVQAGGSLRLSCAASGRTFGPYAMGCYIQAPGKERELVAAISSGGRTYYADSVKGRFTISRDNAKNTVYFQMNSLKPEDTAVYYCAATYGPSRYRYDYWGQGTQVTVSS | high polyreactivity
18 | QFQHVESGGGLVQAGGSLRLSCAASGSTFGLYAMGWYRQAPGKERELVADITWSGGSTYYADSVKGRFTISRDNAKNTVYLQMNSLKPEDTAVYYCAARYPWVYYDFDYWGLGTQVTVSS | low polyreactivity
19 | QFQHVESVGGLVQAGGSLRLSCAASGRIFPYYALGWYREAPGKERELVAAISQSDGSTYYADSVKGRFTISRDNAKNTVYLQMNSLKPEDTAVYYCAKRQASYTQHRKVRGDYWGQGPQVTVSS | low polyreactivity
20 | QFQIVESGGGLVQAGGSLRLSCAASGSIFTQYAMGWYRQAPGKERELVAAITSGGSTYADSVKGRFTISRDNAMNTVYLQMKSLKPEDTAVYYCATPYSYRGVTFNYWGQGTQVTVSS | low polyreactivity
21 | QFQIVESGGGLVQAGGSLRLSCAASGYTFTGNAMGWYRQATGKEREFVAGITWRTGRTYYADSVKGRFTISRDNAKNSVYVLMNSLKPEDTAVYYCNKDHQRRYFWSYDYWGQGTLVTVSS | low polyreactivity
22 | QFQLAESGGGLVQAGGSLRLSCAASGFTFRDYAMGWSRQATGKERELVATISWRGGSTYYADSVKGRFTISRDNAKNTVYLQMNSLKPEDTAVYYCAKRPYQRSVPYGKYDYWGQGTQVTVSS | low polyreactivity

Row | Sequence | polyreactivity (PSR sort gate)
23 | QFQLEESAGGLVQAGGSLRLSCAASGRTFADYAMGWYRPAPGKETELVAAISSGGSTYFAVSVKGRFTISRDNAKNTVYLQMNSLKPEDTAVYYCTARWGYRLGYWGQGTQVTVSS | high polyreactivity
24 | QFQLEESGGGLVQAGGSLRLSCAASGPIFSYNAMGLSRQATGKERELVARINWSSGRTYYADSVKGRFTISRDNAKNTVYLQMNSLKPEDTAVYYCNRVSRGPVGGYYWGQGTQVTESS | high polyreactivity
25 | QFQLEESGGGLVQAGGSLRLSCAASGSTFGDYAMGWYRQAPGKERVLVAAINFSDGSTYYADSVKGRFTISRDNAKNTVYLQMNSLKPEDSAVYYCAKQGYLVWSGWRWYDYWGQGTQGTVSS | low polyreactivity
26 | QFQLEESRGGLVQAGGSLRLSCAASGRIFDLYAMGWYRQAPGKETELVATISGSGGSTYYADSVKGRFTISRDNAKNTVYLQMNSLKPEDTAVYYCAAVSVSSWYDYWGQGTQVTVSS | low polyreactivity
27 | QFQLLESGGGLVHAAGSLRLSSAASVSNFLSNAMGWYRQAPGKETELVAAITTSGTSTFYADSVKGRFTSSRDNAKNTVYLHINSLTPEDTEVYCAKDYLPYLHFVAPSTGDYDYWGQGTQVTVSS | low polyreactivity
28 | QFQLLESGGGLVQAAGSLRLSCAASGGIFRNYAMGWYRKAPGKERELVAAITSSGTSTYYADSVNGRFTISRDNAKNTVYLQMNSLKPEDTAVYYFAADVTARYDYWGQGTQVTVSS | high polyreactivity
29 | QFQLQESGGGLVQAGGTLRLSCAASGSIFYVYGKGWYRQAPGKERELVAGINAGTNTNYADSVRGRFTISRDNAKNTVHLQMNSQKPVDTAVYYCAADGNGYQAHEYWGQGTQVTVSS | high polyreactivity
30 | QFQLVDSGRGLVQAGGSLRVSCAASGITFAYYAMGWYRQAPGKERELVAAISRSGGGTYYADSVKGRFTISRDNAKNPVYLQMNSLKPEDTAVYYCNKDYPYYYAGDGRFDYWGQGTQVTVSS | high polyreactivity
31 | QFQLVDSRGGLVQAGGSLRLSCAASGAIFGGYAMGWYRTAPGKARELVAGSTRSGGSTYYADSVKGRFTISRDNPKNTVYLQMNSLKPEDTAVYYCAVEIQFYRSPRIVRSYDYWGHGTQVTVSS | low polyreactivity
32 | QFQLVDSRRGLVQAGGSLRVSCAASGSTFYIYAMGWSRQAPGKERELVARISGSGGSTYYADSVKGRFTISRDNAKNTVYLQMNSLKPEDTAVYYCAADDIYKYYQYYAFPYYRYDDWGQGTQVTVSS | low polyreactivity
33 | QFQLVESGGCLVQAGCSLRLSCAASGFIIFSNAMGLYRQAPGKERELVAAISRIGVSTFYADSVKGRLTISRDNAKNTVYLQMNSLKPEDTAVYYCNKSNPDYDGLAIHAFDYWGQGTQVTVSS | low polyreactivity
34 | QFQLVESGGGFVQAGGSLRLSCAASGRTFYPYAMGLYRQAPGKERELVAAISSSGGSTYYADSVKGRFTISRDNAKNTVYLQMNSLKPDDTAVYYCAAVASKYKYTGGMDYWGQGTQVTVSS | high polyreactivity
35 | QFQLVESGGGILQAGGSLRLSCAASGFIFSSYAMGWYRQAPGKERELVAAISKRGGSTYYADSVKGRFTISRDNAKNTVYLQMNSLKPEDTAVYYCARGSYPYRSFWLTSDYWGQVTQVTVSS | high polyreactivity
36 | QFQLVESGGGIVQAGGSLRLSCAASGFTFVYYAMGWYRQAPGKERQLVAAITRSAGSTYYADSVKGRFTISRDNAKNTVYLQMNSLKPEDTAVYYCAALNSRYSKAQRMDYWGQGTQVTVSS | low polyreactivity
37 | QFQLVESGGGLDQAGGSLRLSCAASGSIFYYNAMGWYRQAPGKERELVAAIDLNDGITYYADSVKGRFTISRDNAKNTVYLQMNSLKPEDTAVYYCAADSYYFLYDSWGQGTQVTVSS | high polyreactivity
38 | QFQLVESGGGLDQAGGSLRLTCAASGLTIRWYAMGWYRQAPGKERELVAAIRWSGGSTYYADSVKGRFTISRDNAKNTVYLQMNSLKPEDTALYYCAARFLGYQSGTERDYWGQGTQVTVSS | high polyreactivity
39 | QFQLVESGGGLLQAGGSLRLSCADSGFIFCEYAMGWYRQAPGKERELVAAITWSGGRTYYADSVKGRFTISRDNAKNTVYLQMNSLKTEDTAVYYCSAYGSFWYAGFGYWGQGTQVTVSS | low polyreactivity
40 | QFQLVESGGGLVPAGGSLRLSCAASGRIFTGNAMGWSRQAPGKERELVASITYSDGSTYYADSVKGRFTISRDNATNTVYLKMNSLKPEDTAVYYCAADIRWGQGTQVTVSS | low polyreactivity
41 | QFQLVESGGGLVQAGASLRLSCAASGSTFVRYAMGWYRQAPGKERDLVAAITWTGGITYYADSVKGRFTISRDNAKNTVYLHMNSLKPEDTAVYYCIAEQKQYEKSYDYWGQGTQVTVSS | low polyreactivity
42 | QFQLVESGGGLVQAGGRLRLSCAASGVIFSYYAMGCYRQAPGKERELVAAISSSGSRTYYADSVKGRFTISRDNAKNTVYLQMNRLKPEDTAVYYCAARGAAKYGYWGQGTQVTVSS | high polyreactivity
43 | QFQLVESGGGLVQAGGRLRLSCAASRSTFVLYDMGWYRQAPGKERELVAAISRSGDSTYYADSVKGRYTISRDNAKNTVYLQMNSLKPEDTAVYYCAAKRRISTGMDYWGQGTQVTVSS | high polyreactivity

Reference: the nanobody polyreactivity screen of Harvey et al. (2022)
